{"source": "patent US20200385427A1", "binders": {"B1": {"name": "Pin1 inhibitor 7 (peptide)", "peptide": "XAXXXXRAAXFXRRRRXK", "modifications": "not fully specified; bicyclo[Tm(D-Ala-Sar-D-pThr-Pip-Nal-Arg-Ala-D-Ala)-Dap-(Phe-Nal-Arg-Arg-Arg-Arg-Dap)]-Lys-NH2"}, "B2": {"name": "peptide 22 (Table 18) (peptide)", "peptide": "Trimesoyl-P[Sar][dD][Pip][2Nal]RR[dF][Dap]F[2Nal]RRRR[Dap]K", "modifications": "linker (positions not given here) via Trimesoyl; not fully specified (C-terminus, bridges); printed as bicyclo[Tm-(Pro-Sar-D-Asp-Pip-Nal-Arg-Arg-D-Phe)-Dap-(Phe-Nal-Arg-Arg-Arg-Arg-Dap)]-Lys"}, "B3": {"name": "peptide 4 (Table 18) (peptide)", "peptide": "Trimesoyl-[dF][Phe(4-F)][dT][Pip][2Nal]RA[dA][Dap]F[2Nal]RRRR[Dap]K", "modifications": "linker (positions not given here) via Trimesoyl; not fully specified (C-terminus, bridges); printed as bicyclo[Tm-(D-Phe-Fpa-D-Thr-Pip-Nal-Arg-Ala-D-Ala)-Dap-(Phe-Nal-Arg-Arg-Arg-Arg-Dap)]-Lys"}, "B4": {"name": "peptide 7 (Table 18) (peptide)", "peptide": "XXIEXXRAAXFXRRRRXK", "modifications": "not fully specified; bicyclo[Tm-(Mpa-Ile-D-Glu-Pip-Nal-Arg-Ala-D-Ala)-Dap-(Phe-Nal-Arg-Arg-Arg-Arg-Dap)]-Lys"}, "B5": {"name": "Monocyclic Inhibitor 1 (peptide)", "peptide": "cyclo([dT][dN][dV][F2Pmp][dA]RRRR[2Nal]FQ)", "SMILES": "CC(C)[C@H]1NC(=O)[C@@H](CC(N)=O)NC(=O)[C@@H]([C@H](C)O)NC(=O)[C@H](CCC(N)=O)NC(=O)[C@H](Cc2ccccc2)NC(=O)[C@H](Cc2ccc3ccccc3c2)NC(=O)[C@H](CCCNC(=N)N)NC(=O)[C@H](CCCNC(=N)N)NC(=O)[C@H](CCCNC(=N)N)NC(=O)[C@H](CCCNC(=N)N)NC(=O)[C@@H](C)NC(=O)[C@H](Cc2ccc(C(F)(F)P(=O)(O)O)cc2)NC1=O"}, "B6": {"name": "peptide 8 (Table 18) (peptide)", "peptide": "XHXTXXRAAXFXRRRRXK", "modifications": "not fully specified; bicyclo[Tm-(His-Phg-D-Thr-Pip-Nal-Arg-Ala-D-Ala)-Dap-(Phe-Nal-Arg-Arg-Arg-Arg-Dap)]-Lys"}, "B7": {"name": "peptide 37 (Table 18) (peptide)", "peptide": "Trimesoyl-[dPhe(4-F)][Phe(4-F)][dT][Pip][2Nal]RA[dF][Dap]F[2Nal]RRRR[Dap]K", "modifications": "linker (positions not given here) via Trimesoyl; not fully specified (C-terminus, bridges); printed as bicyclo[Tm-(D-4-Fpa-Fpa-D-Thr-Pip-Nal-Arg-Ala-D-Phe)-Dap-(Phe-Nal-Arg-Arg-Arg-Arg-Dap)]-Lys"}, "B8": {"name": "peptide 6 (Table 18) (peptide)", "peptide": "XXHEXXRAAXFXRRRRXK", "modifications": "not fully specified; bicyclo[Tm-(Phg-His-D-Glu-Pip-Nal-Arg-Ala-D-Ala)-Dap-(Phe-Nal-Arg-Arg-Arg-Arg-Dap)]-Lys"}}, "key": {"[1]": {"biological_target": "full-length human S16A/Y23A mutant Pin1 (human) (UniProt Q13526)", "test": "fluorescence anisotropy, FITC-labeled peptide"}, "[2]": {"biological_target": "Pin1 (human) (UniProt Q13526)", "test": "cell-based or functional assay"}, "[3]": {"biological_target": "Pin1 (human) (UniProt Q13526)", "test": "fluorescence anisotropy, FITC-labeled peptide"}, "[4]": {"biological_target": "MBP-Pin1 (S16A/Y23A mutant Pin1 as a maltose-binding protein fusion at the N-terminus) (UniProt Q13526)", "test": "FA of TMR-labeled peptide released from the bead, 5 µM MBP-Pin1"}, "[5]": {"biological_target": "ybbR-tagged PTP1B catalytic domain (amino acids 1-321) (UniProt P18031)", "sequence (P18031 other isoform, or with tags, fused parts or gaps limits assumed)": "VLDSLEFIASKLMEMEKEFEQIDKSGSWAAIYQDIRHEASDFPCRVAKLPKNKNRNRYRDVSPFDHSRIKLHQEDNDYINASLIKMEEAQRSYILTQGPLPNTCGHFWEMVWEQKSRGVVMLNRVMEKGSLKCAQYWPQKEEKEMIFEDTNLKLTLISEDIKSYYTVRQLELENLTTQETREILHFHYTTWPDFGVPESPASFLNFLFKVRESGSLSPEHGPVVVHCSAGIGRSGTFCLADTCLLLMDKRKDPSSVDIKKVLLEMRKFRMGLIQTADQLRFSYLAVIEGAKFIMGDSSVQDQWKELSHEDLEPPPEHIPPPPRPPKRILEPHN", "test": "cell-based or functional assay"}}, "note": "Starred links: 1 amine or outer side, 2 acyl side, 3 side chain; linkers in the order of their positions; H or OH if unused. Non-standard residues stand in square brackets, D forms with d. No end group written: not given here. Trimesoyl = O=C(c1cc(C(=O)[*:2])cc(C(=O)[*:3])c1)[*:1]; F2Pmp = N[C@@H](Cc1ccc(C(F)(F)P(=O)(O)O)cc1)C(=O)O; Phe(4-F) = N[C@@H](Cc1ccc(F)cc1)C(=O)O; dPhe(4-F) = N[C@H](Cc1ccc(F)cc1)C(=O)O; 2Nal = N[C@@H](Cc1ccc2ccccc2c1)C(=O)O; Phg = N[C@H](C(=O)O)c1ccccc1; Pip = O=C(O)[C@@H]1CCCCN1; Nle = CCCC[C@H](N)C(=O)O; Dap = NC[C@H](N)C(=O)O; Sar = CNCC(=O)O", "data": [{"binder": "B1", "values": [{"measurement": "fold improvement of potency against inhibitor 6", "setting": "[1]", "result": 2, "unit": "fold"}, {"measurement": "IC50 (HeLa cell growth, MTT assay)", "setting": "[2]", "result": 1.8, "unit": "µM"}, {"measurement": "PML protein level in HeLa cells (western blot), at 5 µM", "setting": "[2]", "result": 3.1, "unit": "fold"}]}, {"binder": "B2", "values": [{"measurement": "fold increase of Pin1 inhibitory activity against the D-Ala parent", "setting": "[3]", "result": 2, "unit": "fold"}]}, {"binder": "B3", "values": [{"measurement": "Kd", "setting": "[3]", "result": 1, "unit": "µM"}]}, {"binder": "AXXXXYQK (cyclo(D-Ala-Sar-D-pThr-Pip-Nal-Tyr-Gln)-Lys-NH2)", "note": "[Pin1 inhibitor 5]", "values": [{"measurement": "Kd", "setting": "[3]", "result": 0.24, "unit": "µM"}]}, {"binder": "B4", "values": [{"measurement": "FA increase relative to the no-protein control", "setting": "[4]", "result": "> 50", "unit": "%"}, {"measurement": "Kd", "setting": "[3]", "result": 1, "unit": "µM"}]}, {"binder": "B5", "values": [{"measurement": "IC50 (inhibition of pNPP hydrolysis)", "setting": "[5]", "result": 100, "unit": "nM"}]}, {"binder": "B6", "values": [{"measurement": "FA increase relative to the no-protein control", "setting": "[4]", "result": "> 50", "unit": "%"}, {"measurement": "Kd", "setting": "[3]", "result": 1, "unit": "µM"}]}, {"binder": "B7", "values": [{"measurement": "IC50 (HeLa cell growth, MTT assay)", "setting": "[2]", "result": 1, "unit": "µM"}, {"measurement": "IC50 (cis-trans isomerase activity toward Suc-Ala-Glu-Pro-Phe-pNA)", "setting": "[2]", "result": 170, "unit": "nM"}, {"measurement": "PML protein level in HeLa cells (western blot), at 0.2 µM inhibitor", "setting": "[2]", "result": 1.8, "unit": "fold"}, {"measurement": "PML protein level in HeLa cells (western blot), at ˜1 µM inhibitor", "setting": "[2]", "result": 3.3, "unit": "fold"}]}, {"binder": "cyclo(IP[Phg][F2Pmp][Nle]RRRR[2Nal]FQ)", "note": "[Monocyclic Inhibitor 3]", "values": [{"measurement": "IC50 (inhibition of pNPP hydrolysis)", "setting": "[5]", "result": 200, "unit": "nM"}]}, {"binder": "B8", "values": [{"measurement": "FA increase relative to the no-protein control", "setting": "[4]", "result": "> 50", "unit": "%"}, {"measurement": "Kd", "setting": "[3]", "result": 1, "unit": "µM"}]}]}
